Data taken from PMC7653511 (Journal of immunology (Baltimore, Md. : 1950), 2020).

Assays:
[1] = target: HLA-E*01:01 heavy chain with human β2-microglobulin (human); test: HPLC size exclusion chromatography peptide competition binding assay
[2] = target: HLA-E*01:03 heavy chain with human β2-microglobulin (human); test: as above
[3] = target: HLA-E*01:01 heavy chain with human β2-microglobulin (human); test: HPLC size exclusion chromatograph
[4] = target: HLA-E*01:03 heavy chain with human β2-microglobulin (human); test: HPLC size exclusion chromatograph
HLA-E = details: no reference given; cited from earlier work
[5] = Aggregation of the proteins with norleucine fluorescent standard peptide; type: physicochemical; details: norleucine vs methionine in position 2 of fluorescent standard peptide
HLA-E*01:01 = HLA-E*01:01 (Homo sapiens, UniProt P13747, G128R); test: UV-mediated peptide exchange binding assay; details: s/p ratio, at least two independent experiments
Mamu-E = type: binding, rhesus macaques; details: s/p ratio, at least two independent experiments
HLA-E*01:03 = HLA-E*01:03 (Homo sapiens, UniProt P13747); test: UV-mediated peptide exchange binding assay; details: s/p ratio, at least two independent experiments
Qa-1^b = Qa-1^b (Mus musculus, UniProt P06339); test: UV-mediated peptide exchange binding assay; set-up: species or system mice; details: s/p ratio, at least two independent experiments

| Substance | Effect of alanine substitution on binding (HLA-E*01:01) | Effect of alanine substitution on binding (Mamu-E) | Effect of alanine substitution on binding (HLA-E*01:03) | Effect of alanine substitution on binding (Qa-1^b) | also measured |
| --- | --- | --- | --- | --- | --- |
| Qdm (peptide) | – | – | – | – | IC50 [1]: < 100 µM; IC50 [2]: < 100 µM |
| VL9 (peptide) | – | – | – | – | IC50 [3]: < 100 µM; IC50 [4]: < 100 µM |
| VLAPRTLLL [pCMV] | – | – | – | – | Known binding to HLA-E of control peptides (HLA-E): high binding capacity to HLA-E |
| VXAPCTLLL | – | – | – | – | Unspecific aggregation of the proteins [5]: reduced unspecific aggregation of the proteins |
| pCMV P2-Ala: pCMV with Ala in position 2 (VAAPRTLLL) | considerable loss of binding | considerable loss of binding | considerable loss of binding | considerable loss of binding | – |
| pCMV P7-Ala: pCMV with Ala in position 7 (VLAPRTALL) | complete or almost complete loss of binding | complete or almost complete loss of binding | complete or almost complete loss of binding | complete or almost complete loss of binding | – |
| pCMV P9-Ala: pCMV with Ala in position 9 (VLAPRTLLA) | complete or almost complete loss of binding | complete or almost complete loss of binding | complete or almost complete loss of binding | complete or almost complete loss of binding | – |
